Ends that are not written are not given here.
Key:
[1] = molecular target: T1, GST-PfLDH (UniProt Q27743 2-316); assay: ELISA
[2] = molecular target: T1, GST-PfLDH; assay: sandwich ELISA
[3] = molecular target: GST-PvLDH (UniProt P84793 1-313); assay: sandwich ELISA
[4] = molecular target: PfLDH protein (UniProt Q27743 2-316)

Binder	EC50 [1] [nM]	EC50 [2] [nM]	EC50 [3] [nM]	Kd [4] [nM]
HWSAN (staple (positions not given here); also: RCM ring between olefin-bearing non-natural residues, places not given here, biotinylated) [RCM cyclized version of the HWSAN (SEQ ID NO:11) peptide]	2.57	–	–	–
binary ligand hevwh-YLGHK (not fully specified (bridges)) peptide 1: HEVWH peptide 2: YLGHK	–	15.1	12	~10

— US20220380409A1 (published 2022)
